Experimental data taken from publication PMC8477557 (2021).

Molecular target: αCD123
Test: SPR

Kd: 1.2 nM
B1: CD123 extracellular domain (domain or fragment)
chain: TKEDPNPPITNLRMKAKAQQLTWDLNRNVTDIECVKDADYSMPAVNNSYCQFGAISLCEVTNYTVRVANPPFSTWILFPENSGKPWAGAENLTCWIHDVDFLSCSWAVGPGAPADVQYDLYLNVANRRQQYECLHYKTDAQGTRIGCRFDDISRLSSGSQSSHILVRGRSAAFGIPCTDKFVVFSQIEILTPPNMTAKCNKTHSFMHWKMRSHFNRKFRYELQIQKRMQPVITEQVRDRTSFQLLNPGTYTVQIRARERVYEFLSAWSTPQRFECDQEEGANTRAWR
